Reference: patent publication US8697648B2, “Protein agent for diabetes treatment and β cell imaging” (Georgia State University Research Foundation, Inc., priority 2009, dated 2014)

Tests used:
CD-1 mice = assay: Toxicity in healthy CD-1 mice; assay type: in vivo; conditions: one or two doses of 100 μl (6 mM), 14 days
Procedure: One group of mice (7 mice per group) were injected with one dose of 100 μl of the agent (6 mM) and another group of animals were injected with two doses of the agent (100 μl of agent (6 mM)) with 8 hours time interval between the two injections. The animals were returned to their cages for 14 days. Among 14 tested mice, no mouse died. All animals behaved normally (no change in eating habits. No abnormal weight gain or loss. No abnormal appearance on fur).

diabetic mice [1] = assay: Four week daily treatment, blood glucose and body weight (Example 19); assay type: in vivo; conditions: 25 nmole/kg i.p. daily for 4 weeks
Procedure: Agents (indicated in the figures 25 nmole/kg) were administrated by i.p. at daily at the same time 2:00 pm for 4 weeks. The animals were returned to the ages. Blood samples (about […]) were draw daily at 5:00 pm for 4 weeks. Glucose in blood samples was measured. Blood glucose levels were plotted against day. Animal body weight was weighed daily before drawing blood. Average body weight of each group of six mice was plotted against days.
The effects of the developed agent and PEGylated agents on blood glucose lowering in diabetic mice were examined in a four week treatment course. Agents (indicated in the figures at 25 nmole/kg) were administrated by i.p. daily at the same time 2:00 pm for 4 weeks. The animals were returned to the ages. Blood samples (−20 μl) were draw daily at 5:00 pm for 4 weeks. Glucose in blood samples was measured. Blood glucose levels were plotted against day. Animal body weight was weighed daily before drawing blood. Average body weight of each group of six mice was plotted against days.

Stability to boiling = assay type: physicochemical; conditions: boiling for 10 minutes
Procedure: This property led to a simplified one ion-exchange column chromatography procedure of protein purification. The bacterial lysate was boiled for 10 minutes. Most bacterial proteins were precipitated due to denaturing by boiling. The fusion protein stayed in supernatant. The protein was then further purified by an ion-exchange column. Approximately 30-50 mg purified fusion protein per liter of bacterial culture were obtained.

[2] = tested on: Diabetic mice (BKS.Cg-Lepr^db/db); assay: Blood glucose lowering in fed diabetic mice (Example 15); assay type: in vivo
Procedure: The animals were re-feed for 25 minutes 5 hours after drug administration and 35 minutes before the last time point of blood sample collection. The A Blood Glucose (mg/dl) was determined by calculating the difference between the measured blood glucose levels at any given time point and the initial blood glucose levels. The initial blood glucose levels were measured after feeding for 20 min and before the drug administration (time zero). The error bars represent standard deviations of measurements of eight mice.
The developed protein agent was tested to determine whether it had the in vivo capability of lowering blood glucose in diabetic subjects. Diabetic mice (BKS.Cg-Lepr^db/db, The Jackson Laboratory) were used as test subjects. A group of six animals first fasted for 6 hours. After fasting, the animals were fed for 30 minutes. The protein agent was administered after feeding by intraperitoneal injection at a dose of 25 nmole/kg. The animals were fed again for 30 mins, 5 hrs after agent administration. Blood samples were taken at different time points after administration of the agent. Glucose concentration in the blood samples was measured using a commercially available kit.

[3] = Protein serum stability test in mice serum (SDS-PAGE); assay type: in vitro ADME; conditions: mice serum 1:1, 37° C., 24 hrs
Procedure: FIG. 5 is a digital image of a gel analysis of a protein serum stability test. A 16% SDS-PAGE without DTT was used to analysis the protein level after incubation with mice serum for certain time. Lane 1: mice serum only; Lane 2: fusion protein only; Lanes 3-5: fusion protein incubated with 50% serum for 1 hr, 3 hrs, and 24 hrs respectively; Lane 6: PEGylated protein only; Lanes 7-9: PEGylated protein incubated with 50% serum for 1 hr, 3 hrs, and 24 hrs respectively.
The fusion protein and PEGylated protein were incubated with mice serum at a ratio 1:1, in 37° C. for 1 hr, 3 hrs and 24 hrs. Samples were then analyzed by 16% SDS-PAGE.
The fusion protein and PEGylated protein were incubated with mice serum at a 1:1 ratio at 37° C. for 1 hr, 3 hrs, and overnight. SDS-PAGE was then used to analyze the protein stability.

[4] = Stability in 75% human serum (SDS-PAGE); assay type: in vitro ADME; conditions: 48 hour
Procedure: FIG. 7 is a digital image of an SDS-PAGE analysis of serum stability of the fusion protein Cal.GLP. […] Cal.GLP was incubated with 75% human serum (S+CA) in […] at 37° C. for 1 hour (lane 3), 3 hours (lane 4), and 24 hours (lane 5). The mixture was separated by 16% SDS-PAGE and visualized by coomassie blue staining. Lane 1 is 75% human serum (S) and lane 2 is Cal.GLP only (CA). Lane M is molecular weight markers.
(§1) The fusion protein Cal.GLP was incubated with 75% human serum for a time course (up to 48 hrs). The protein was then analyzed by SDS-PAGE and stained by coomassie blue.

RINm5F cells = assay: Immunostaining binding analysis, RINm5F cells (GLP-1R expressed); assay type: cell-based, rat; conditions: Cal.GLP 10 μM, calbindin D9k 50 μM, 37° C., 30 mins
Procedure: (§2) FIG. 10 is a series of digital images showing immunofluorescence staining of CHO or RINm5F cells that were treated by calbindin (50 μM) and Cal.GLP (10 μM). The cells were extensively washed after 30 min treatments under 37° C. in microscopic chamber slides and subsequently fixed. The cells were stained with the calbindin-specific antibody and visualized under confocal microscopy. The light shading represents antibody staining.
(§3) To examine whether the developed protein indeed interacted with GLP-1R, the binding of the fusion protein with two cell lines, RINm5F and CHO cells was examined. It is well known that GLP-1R is expressed in RINm5F but not in CHO cells. Both RINm5F and CHO cells were incubated with fusion protein Cal.GLP (10 μM) or calbindin D9k (50 μM) at 37° C. for 30 mins. After extensive washing, the cells were fixed and subjected to immunostaining analyses using a rabbit polyclonal antibody against parental protein calbindin D9k. […] Similar binding analyses were carried out with RINm5F cells and a […] (αTC1).

CHO cells = assay: Immunostaining binding analysis, CHO cells (no GLP-1R); assay type: cell-based; conditions: Cal.GLP 10 μM, calbindin D9k 50 μM, 37° C., 30 mins
Procedure: as §2, §3

[5] = NMR and fluorescence spectrum analyses in different pH conditions; assay type: physicochemical; conditions: pH 3, 5, 7, 9, 10
Procedure: FIG. 8 is a graph showing the fluorescence spectrum of the protein Cal.GLP (50 μM) at various pH values. The spectrum at each pH was compared to that of completely denatured Cal.GLP in 8M Urea.
as §1

αTC1 cells = assay: Immunostaining binding analysis, αTC1 cells; assay type: cell-based
Procedure: as §3

diabetic mice [6] = assay: Blood glucose and glucose-dependent insulin secretion after co-administration with glucose (Example 16); assay type: in vivo; conditions: 25 nmole/kg agent with 15 mmole/kg glucose i.p.
Procedure: FIG. 12 is a pair of graphs showing the changes in Δ blood glucose (Upper panel) and Δ insulin (bottom panel) in a group of 8 diabetic mice at different time points after injection of 15 mmole/kg of glucose with 25 nmole/kg of different agents.
The effects of the developed agent on blood glucose lowering and stimulating of the glucose-dependent insulin secretion in diabetic mice were also examined. The animals first fasted for 6 hours. The protein agent (25 nmole/kg) and glucose (15 mmole/kg) were co-administrated via intraperitoneal injection with a group of eight diabetic mice. The blood glucose and insulin levels were measured at different time points. As controls, the same dose of glucose was administrated alone and co-administrated with the parental protein calbindin in separate groups of diabetic mice.

B1: Cal.GLP: GLP-1 grafted into human calbindin D9k by replacing a C-terminal helix; SEQ ID NO: 14 (protein)
chain: MSTKKSPEELKRIFEKYAAKEGDPDQLSKDELKLLIQAEFPSLLKGPNTLDDLFQELDKNGHAEGTFTSDVSSYLEGQAAKEFIAWLVKGRG
modifications: Fusion protein Cal.GLP
acute toxicity (CD-1 mice): did not have acute toxicity
mortality (CD-1 mice; 14 mice): no mouse died
body weight change (diabetic mice [1]): did not result significant weight gain or lose
lowering and stabilizing the blood glucose (diabetic mice [1]): stronger effects in lowering and stabilizing the blood glucose
integrity and folding after boiling (Stability to boiling): remained intact and folded
blood glucose decrease and effective time compared to exendin-4 ([2]; 25 nmole/kg i.p.): bigger blood glucose decrease and significantly longer effective time
drop of blood glucose levels ([2]; 25 nmole/kg i.p., 4 hour time course): about 215 mg/dl
blood glucose levels after re-feed ([2]; 6 hours post administration, one hour after re-feed): minor increase in blood glucose levels
degradation in mice serum [3]: no degradation
integrity after incubation with human serum [4]: remained intact
binding to RINm5F cells (RINm5F cells): bound to RINm5F cells
binding to CHO cells (CHO cells): not CHO cells
folding in different pH conditions [5]: remained folded in wide ranges of pH conditions
binding to αTC1 cells (αTC1 cells): not to αTC1 cells
blood glucose lowering post glucose and drug administration (diabetic mice [6]): dramatic blood glucose lowering
duration of increase in insulin and decrease in glucose (diabetic mice [6]): ~2 h
glucose lowering and duration compared to exendin-4 (diabetic mice [6]): larger glucose lowering in longer duration
